Sequences and labels used below:
B1: F11-6 (ssRNA)
RNA: GGGAGAGAGGAAGAGGGAUGGGCCAGCAACGUCACACGAACGGAAUACCCCCCAUUGAAAACCAUAACCCAGAGGUCGAU
B2: E9-6 (ssRNA)
RNA: GGGAGAGAGGAAGAGGGAUGGGCCAGAAGCUAAACACUCAUAACCACGCUGAACCCCCCAACCAUAACCCAGAGGUCGAU
B3: D6-10 (ssRNA)
RNA: GGGAGAGAGGAAGAGGGAUGGGCAGAUAGCCACAGCGAGAUCAUACUUGGCCCCGCUACUACCAUAACCCAGAGGUCGAU
B4: D4-2 (ssRNA)
RNA: GGGAGAGAGGAAGAGGGAUGGGAACUUAGCCUCAGCGAGAUAACGCUUGGCCCCGCUAAGACCAUAACCCAGAGGUCGAU
B5: D4-9 (ssRNA)
RNA: GGGAGAGAGGAAGAGGGAUGGGUAAGUUGCCCCAGCGAGAUAGUACUUGGCCCCGCUACUAACAUAACCCAGAGGUCGAU
B6: D7-5 (ssRNA)
RNA: GGGAGAGAGGAAGAGGGAUGGGAAACUAGCCUCAGCGAGAUAAUACUUGGCCCCGCUACUACCAUAACCCAGAGGUCGAU
B7: D4-3 (ssRNA)
RNA: GGGAGAGAGGAAGAGGGAUGGGUAAAUAGCCCCAGCGAGAUAAUACUUGGCCCCGCAACUACCAUAACCCAGAGGUCGAU
B8: D7-4 (ssRNA)
RNA: GGGAGAGAGGAAGAGGGAUGGGAGAAUAGCCCCAGCGAGAUCGUACUUGGCCCCGCUAGUACCAUAACCCAGAGGUCGAU
B9: D4-5 (ssRNA)
RNA: GGGAGAGAGGAAGAGGGAUGGGAGAAUAGCCCCAGCGAGAUAAUCCUUGGCCCCGCUACUGCCAUAACCCAGAGGUCGAU
B10: F11-10 (ssRNA)
RNA: GGGAGAGAGGAAGAGGGAUGGGCUCGGCAGAAGACACGCAUUCACCUGGUGCCACCUCGUAACAUAACCCAGAGGUCGAU
B11: E10-11 (ssRNA)
RNA: GGGAGAGAGGAAGAGGGAUGGGCCAGAAGCGCUCACUACAACGUUGAACCCCCCGUCCACACCAUAACCCAGAGGUCGAU
B12: E10-6 (ssRNA)
RNA: GGGAGAGAGGAAGAGGGAUGGGGCCGUCGCCAGGAAUCAAACUGCUACUCCAUCCCGGGCACAUAACCCAGAGGUCGAU
B13: E10-4 (ssRNA)
RNA: GGGAGAGAGGAAGAGGGAUGGGUCUUAGAUAUAGAACUCCGAGAGGACUGACCGUACAGAACCAUAACCCAGAGGUCGAU
B14: E10-8 (ssRNA)
RNA: GGGAGAGAGGAAGAGGGAUGGGCCAAAAGCGGACUGAAGACGUGUUUCCCCCAUCUCCGUGACAUAACCCAGAGGUCGAU
B15: E9-5 (ssRNA)
RNA: GGGAGAGAGGAAGAGGGAUGGGCCAGAAGCGACACUAACGCUGAACCCCCCAGUCCCUUCACGUGCAUAACCCAGAGGUCGAU
B16: E9-10 (ssRNA)
RNA: GGGAGAGAGGAAGAGGGAUGGGCCAGAACCAACUGCGGUGAACCCCCCAUACCGCGACACAUCAUAACCCAGAGGUCGAU
B17: E9-9 (ssRNA)
RNA: GGGAGAGAGGAAGAGGGAUGGGCCAGAACACCAGUGAACCCCCCAGCCCCUUCUCACCAGAUCAUAACCCAGAGGUCGAU
B18: E9-2 (ssRNA)
RNA: GGGAGAGAGGAAGAGGGAUGGGAUACCGAGCACGCAAAACACACAAUGCCCAAGCAGGACUCAUAACCCAGAGGUCGAU
B19: E9-3 (ssRNA)
RNA: GGGAGAGAGGAAGAGGGAUGGGCCAAAAGCGCAUACACCUGCGUGUUUCCCCCGCCAACAGUCAUAACCCAGAGGUCGAU
B20: E9-4 (ssRNA)
RNA: GGGAGAGAGGAAGAGGGAUGGGAGCCCGAGAAAAUAACGCGUUCCACCAUACUACUAAGCCAUAACCCAGAGGUCGAU
B21: E9-8 (ssRNA)
RNA: GGGAGAGAGGAAGAGGGAUGGGCCAGAAGGAACUAAACACCUGAACCCCCCAUCGCGAGAGACAUAACCCAGAGGUCGAU
B22: 9.28 (ssRNA)
RNA: GGGAGAGAGGAAGAGGGAUGGGCGCCAUACGCACAUUGCUGCAUCGCCUUCCCGUAAGAACCAUAACCCAGAGGUCGAUAGUACUGGAUCCCCCC
modifications: 2'-F pyrimidines
B23: 9.20 (ssRNA)
RNA: GGGAGAGAGGAAGAGGGAUGGGGACUAUACCGGCAAUCGUGCAUCCCCUGGACCUAACAAUACAUAACCCAGAGGUCGAUAGUACUGGAUCCCCCC
modifications: 2'-F pyrimidines
B24: 9.19 (ssRNA)
RNA: GGGAGAGAGGAAGAGGGAUGGGACCAUAACGACUACUCGUGAAUCCCACCAUCAGCGCACAACAUAACCCAGAGGUCGAUAGUACUGGAUCCCCCC
modifications: 2'-F pyrimidines
B25: 9.27 (ssRNA)
RNA: GGGAGAGAGGAAGAGGGAUGGGUAAUAACUGUAUGGUGAACCCACCCAAACUCCCAUGGCUACAUAACCCAGAGGUCGAUAGUACUGGAUCCCCCC
modifications: 2'-F pyrimidines
B26: 9.26 (ssRNA)
RNA: GGGAGAGAGGAAGAGGGAUGGGUGAUAACCACUCUGGUGAACCCCUCCCGACUUGCUCGCACAUAACCCAGAGGUCGAUAGUACUGGAUCCCCCC
modifications: 2'-F pyrimidines
B27: 9.25 (ssRNA)
RNA: GGGAGAGAGGAAGAGGGAUGGGGACCAUAACUCUAACGGGUGAAUCCCGCAUCUCGACAAUACAUAACCCAGAGGUCGAUAGUACUGGAUCCCC
modifications: 2'-F pyrimidines

The Kd is the equilibrium constant for the complex coming apart. A low value points to higher affinity.

Chain of coagulation factor IXa (FIXa) (P00740 47-191, chain 1 of 2): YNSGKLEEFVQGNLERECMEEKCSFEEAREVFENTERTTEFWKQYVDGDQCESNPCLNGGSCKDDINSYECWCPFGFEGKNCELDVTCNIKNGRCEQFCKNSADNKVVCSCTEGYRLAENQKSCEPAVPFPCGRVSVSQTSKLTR
Chain of coagulation factor IXa (FIXa) (P00740 227-461, chain 2 of 2): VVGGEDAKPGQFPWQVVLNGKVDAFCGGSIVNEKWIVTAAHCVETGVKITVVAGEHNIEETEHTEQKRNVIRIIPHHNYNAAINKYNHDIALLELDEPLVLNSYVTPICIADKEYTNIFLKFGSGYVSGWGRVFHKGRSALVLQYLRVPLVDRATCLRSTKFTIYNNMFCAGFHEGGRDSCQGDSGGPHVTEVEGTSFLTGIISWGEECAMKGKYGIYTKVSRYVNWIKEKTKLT
Chain of coagulation factor Xa (FXa) (P00742 41-179, chain 1 of 2): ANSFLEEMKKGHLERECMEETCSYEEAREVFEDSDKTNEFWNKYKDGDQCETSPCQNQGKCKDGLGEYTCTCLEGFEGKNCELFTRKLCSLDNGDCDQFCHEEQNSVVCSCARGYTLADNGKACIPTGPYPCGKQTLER
Chain of coagulation factor Xa (FXa) (P00742 235-488, chain 2 of 2): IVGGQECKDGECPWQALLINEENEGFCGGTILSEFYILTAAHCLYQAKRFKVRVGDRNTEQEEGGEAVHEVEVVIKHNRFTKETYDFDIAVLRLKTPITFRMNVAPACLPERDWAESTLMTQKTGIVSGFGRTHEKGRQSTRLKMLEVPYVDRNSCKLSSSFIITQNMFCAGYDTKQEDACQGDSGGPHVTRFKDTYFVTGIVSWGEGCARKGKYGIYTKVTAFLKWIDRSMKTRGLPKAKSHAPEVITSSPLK

The first series has as its target coagulation factor Xa (FXa) (UniProt P00742;P00742 P00742:41-179,P00742:235-488).
Assay: not given
In the case of B1, binding was put at a Kd of 33.6 nM.

Molecule B2 yielded a dissociation constant (Kd) of 95.1 nM.

Regarding B3, the equilibrium dissociation constant (Kd) stood at 18.7 nM.

For B4, binding was put at a Kd of 540 nM.

B5 came in with a Kd of more than 240 nM.

Turning to B6, the Kd stood at 26.1 nM.

With B7, binding was characterised by a dissociation constant (Kd) of 65.5 nM.

B8 showed a dissociation constant (Kd) of 39.3 nM.

B9 came in with a Kd of 21.7 nM.

B10: binding was characterised by a dissociation constant (Kd) of 84.4 nM. This Kd is about 3.9-fold higher than that of the molecule before.

B11 yielded a Kd of 27.1 nM.

B12 displayed a Kd of 85.7 nM.

In turn, B13 returned a Kd of 37.4 nM.

Take B14: the Kd is 28.4 nM.

For the molecule B15, binding was put at a Kd of 53.5 nM.

Molecule B16 came in with a Kd of 130 nM.

In turn, B17 displayed a Kd of 52.8 nM.

In turn, B18 came in with a dissociation constant (Kd) of 58.6 nM.

The molecule B19 gave a Kd of 46.5 nM.

For B20, binding was characterised by a dissociation constant (Kd) of 65 nM.

Consider B21, for which the Kd amounted to 29.8 nM.

Another series concerns the target thrombin (F2) (human, UniProt P00734;P00734 P00734:328-363,P00734:364-622).
Assay: not given
Molecule GGGAACAAAGCUGAAGUACUUAGGG (ssRNA) [TOG 25 short no stem] yielded a Kd of approximately 1000 nM.

With GGGAACAAAGCAGAAGUACUUACCC (ssRNA) [TOG 25 short loop U1], the Kd is approximately 250 nM.

In turn, GGGAACAAAGCUGAAGUACUUACCC (ssRNA) [TOG 25 short (TOGGLE-25t)] had an equilibrium dissociation constant (Kd) of approximately 1 nM.

The next series addresses coagulation factor IXa (FIXa) (UniProt P00740;P00740 P00740:47-191,P00740:227-461). In words: filter; double-filter nitrocellulose.
As for B22, binding was put at a Kd of 0.592 nM.

The molecule B23 displayed an equilibrium dissociation constant (Kd) of 0.49 nM. This Kd and that of the molecule before are within 1.5-fold of each other.

B24 registered a dissociation constant Kd of 0.707 nM.

B25 registered an equilibrium dissociation constant (Kd) of 1.64 nM.

The molecule B26 showed an equilibrium dissociation constant (Kd) of 0.49 nM.

The molecule B27 displayed a Kd of 0.49 nM.

These data come from patent US20030175703, “RNA aptamers and methods for identifying the same” (published 2003).
